Source: article PMC2191977 (The Journal of Experimental Medicine, 1995)

Biological target: B7 QDP/LEK (mouse) (UniProt Q00609)
Test: flow cytometry on cells

Sequence of CTLA4Ig (P09793 36-161): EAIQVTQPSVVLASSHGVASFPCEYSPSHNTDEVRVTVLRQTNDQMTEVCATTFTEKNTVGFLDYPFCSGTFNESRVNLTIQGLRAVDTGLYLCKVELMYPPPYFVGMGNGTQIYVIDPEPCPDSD

% wild-type B7 binding (normalised to anti-B7 mAb 10.16A.1): 15%
MF (mean fluorescence, control subtracted): 42 MF
Substance: CTLA4Ig (from UniProt P09793 36-161) (Fc fusion)
